Assay [1] has as its target human ErbB2 receptor on BT474 human breast tumor cells (human) (UniProt P04626). Put plainly: cell-based or functional assay.
For assay [2] the target is unchanged. Briefly: Scatchard analysis, 125I-antibody on BT474 cell monolayers, on ice.

In assay [1], “anti-ErbB2 IgG1κ murine monoclonal antibody 4D5 (ATCC CRL 10463)” returned a % apoptosis of BT474 cell population (Hoechst 33342 cell cycle analysis, 3 days) of 41.9% and a proportion of S-phase cells (BT474, 3 days) of 5.4%. Moreover, the Kd in assay [2] is 6.5 nM.

Broadly, the Kd is the free concentration of one partner at which half of the binding sites on the other are occupied at equilibrium, for simple one-to-one binding. Low values mean tighter binding, high ones weaker binding.
